Data: patent publication US20190127444A1 (NEW YORK UNIVERSITY, published 2019)

Legend:
[1] = target: T1, LukAB toxoid variant (LukA E323A), recombinant polyhistidine-tagged (S. aureus, UniProt Q2FFA2 28-351; P21224 30-338); experiment: BLI, FN3 protein on streptavidin pins, LukAB in solution
T1 sequence 1: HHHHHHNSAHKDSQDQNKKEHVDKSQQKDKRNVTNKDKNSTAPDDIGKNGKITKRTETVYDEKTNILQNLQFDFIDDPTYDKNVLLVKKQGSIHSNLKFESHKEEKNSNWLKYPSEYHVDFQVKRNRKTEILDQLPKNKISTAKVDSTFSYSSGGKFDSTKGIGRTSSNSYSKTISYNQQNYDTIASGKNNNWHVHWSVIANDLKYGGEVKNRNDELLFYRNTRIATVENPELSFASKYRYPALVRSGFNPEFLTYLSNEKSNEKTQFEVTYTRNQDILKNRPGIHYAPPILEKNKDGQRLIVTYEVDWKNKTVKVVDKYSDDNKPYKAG
T1 sequence 2: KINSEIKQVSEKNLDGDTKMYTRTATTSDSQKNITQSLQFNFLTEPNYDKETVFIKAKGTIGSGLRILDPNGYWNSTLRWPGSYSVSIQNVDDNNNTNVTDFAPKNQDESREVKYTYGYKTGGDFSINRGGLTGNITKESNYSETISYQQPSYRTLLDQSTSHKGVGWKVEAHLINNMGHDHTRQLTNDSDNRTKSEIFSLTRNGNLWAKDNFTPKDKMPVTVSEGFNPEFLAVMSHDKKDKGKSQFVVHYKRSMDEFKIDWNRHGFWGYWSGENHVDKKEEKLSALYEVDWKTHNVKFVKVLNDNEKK

[2] = target: T2, recombinant Protein A (ProSpec-TanyTechnoGene Ltd.), biotinylated (S. aureus, UniProt P38507 37-327); experiment: ELISA, biotinylated Protein A on streptavidin plate
T2 construct: also called SpA
Procedure: Characterization of Protein A binding was determined by ELISA. Briefly, plates were coated with streptavidin (5 μg/mL in PBS, 50 μL per well) and incubated overnight at 4° C. Plates were washed three times with ELISA wash buffer (0.15M NaCl, 0.02% Tween-20) and then coated with biotinylated Protein A at 2 μg/mL (50 L per well) in PBS for one hour at room temperature. Plates were then washed three times with ELISA wash buffer and then blocked with ELISA blocking buffer (3% BSA in PBS, 200 μL per well). Test articles were then added in a 3-fold dilution series starting at 10 μg/mL and the plates incubated at room temperature for one hour. Plates were then washed three times with ELISA wash buffer and 50 mL per well of HRP-conjugated goat anti-human kappa light chain (Millipore AP502P) added at a 1:15,000 dilution in 3% BSA in PBS and the plates incubated for one hour at room temperature. Plates were then washed five times with ELISA wash buffer and bound HRP detected using the 3,3′,5,5′-Tetramethylbenzidine (TMB; Fitzgerald) as a chromogenic substrate.

[3] = target: TD peptide; experiment: ELISA, peptide captured on streptavidin

B1: TENCON-His-SA (designed binder)
chain: MLPAPKNLVVSRVTEDSARLSWTAPDAAFDSFLIQYQESEKVGEAIVLTVPGSERSYDLTGLKPGTEYTVSIYGVKGGHRSNPLSAIFTTGGHHHHHHGGGLNDIFEAQKIEWHE
notes: also called parental control FN3 domain protein
binding result [1]: no binding (tested: 10 ug/mL)

B2: anti-LTA (Pagibaximab) PRASA A6 (Table 1 Construct 33) (antibody, human IgG1, kappa)
heavy: EVMLVESGGGLVQPKGSLKLSCAASGFTFNNYAMNWVRQAPGKGLEWVARIRSKSNNYATFYADSVKDRFTISRDDSQSMLYLQMNNLKTEDTAMYYCVRRGASGIDYAMDYWGQGTSLTVSSASTKGPSVFPLAPSSKSTSGGTAALGCLVKDYFPEPVTVSWNSGALTSGVHTFPAVLQSSGLYSLSSVVTVPSSSLGTQTYICNVNHKPSNTKVDKKVEPKSCDKTHTCPPCPAPPVAGPDVFLFPPKPKDTLMISRTPEVTCVVVDVSHEDPEVKFNWYVDGVEVHNAKTKPREEQYNSTYRVVSVLTVLHQDWLNGKEYKCKVSNAALPAPIAKTISKAKGQPREPQVYTLPPSRDELTKNQVSLTCLVKGFYPSDIAVEWESNGQPENNYKTTPPVLDSDGSFFLYSKLTVDKSRWQQGNVFSCSVMHEALHNRFTQKSLSLSPGK
light: DIVLSQSPAILSASPGEKVTMTCRASSSVNYMHWYQQKPGSSPKPWISATSNLASGVPARFSGSGSGTSYSLTISRVEAEDAATYYCQQWSSNPPTFGGGTMLEIKRTVAAPSVFIFPPSDEQLKSGTASVVCLLNNFYPREAKVQWKVDNALQSGNSQESVTEQDSKDSTYSLSSTLTLSKADYEKHKVYACEVTHQGLSSPVTKSFNRGEC
notes: also called LTA PRASA A6; PRASA A6 variant of pagibaximab
binding result [2]: no binding (tested: 10 µg/mL)

B3: mAb 5133 (CR5133, IgG1 wt; Table 1 Construct 1) (antibody)
heavy: not shown
light: EIVLTQSPATLSLSPGERATLSCRASQSVSGYLGWYQQKPGQAPRLLIYGASSRATGIPDRFSGSGSGTDFTLTISRLEPEDFAVYYCQQYGSSPLTFGGGTKLEIKRTVAAPSVFIFPPSDEQLKSGTASVVCLLNNFYPREAKVQWKVDNALQSGNSQESVTEQDSKDSTYSLSSTLTLSKADYEKHKVYACEVTHQGLSSPVTKSFNRGEC
binding result [3]: no binding
